# Bridge positions count the residues as written; N and C are the ends. Square brackets hold non-standard residues; d marks the D form. Ends that are not written are not given here. * marks the point of attachment. Acetyl(2-(4-imidazolyl)) = O=C(Cc1c[nH]cn1)*; Aib = CC(C)(N)C(=O)O
# Molecular target: human GLP-1 receptor (human, UniProt P43220 24-463)
# Assay: cell-based or functional assay
row,Binder,"In vitro activity compared to native-type peptide (%), vs GLP-1 [%]"
1,H[Aib]QGTFTSDYSKYLDEKACKEFVQWLLAQ (bridge 16-20) [triple agonist of SEQ ID NO: 31],135
2,[Acetyl(2-(4-imidazolyl))]GQGTFTSDLSIQYDSEHQRDFIEWLKDTGPSSGAPPPSHG [triple agonist of SEQ ID NO: 19],< 0.1
3,H[Aib]QGTFTSDVSSYLLGQAAKQFIAWLVKGGGPSSGAPPPSC [triple agonist of SEQ ID NO: 3],1.8
4,H[Aib]QGTFTSDYSIAMDEIHQKDFVNWLLAQKC (bridge 16-20) [triple agonist of SEQ ID NO: 33],24.5
5,Y[Aib]QGTFTSDYSKYLDECRAKEFVQWLKNGGPSSGAPPPS (bridge 16-20) [triple agonist of SEQ ID NO: 24],41.2
6,H[Aib]QGTFTSDYSKYLDEKAAKEFVQWLLNTC (bridge 16-20) [triple agonist of SEQ ID NO: 29],38.5
7,Y[Aib]QGTFTSDYSKYLDECRAKEFVQWLLAQKGKKNDWKHNIT (bridge 16-20) [triple agonist of SEQ ID NO: 23],4.01
8,H[Aib]QGTFTSDYSKYLDERACQDFVQWLLDQGGPSSGAPPPS [triple agonist of SEQ ID NO: 27],83.1
9,H[Aib]QGTFTSDYSKYLDEKAQKEFVQWLLDTC (bridge 16-20) [triple agonist of SEQ ID NO: 30],142
10,H[Aib]QGTFTSDYSKYLDEKACKDFVQWLLDGGPSSGAPPPS (bridge 16-20) [triple agonist of SEQ ID NO: 32],151
11,H[Aib]QGTFTSDYSKYLDEKRAQEFVCWLLAQKGKKNDWKHNIT [triple agonist of SEQ ID NO: 28],17.2
12,H[Aib]QGTFTSDCSKYLDSRAAQDFVQWLLDGGPSSGAPPPS [triple agonist of SEQ ID NO: 26],64.5
13,[Acetyl(2-(4-imidazolyl))]GQGTFTSDLSKQMDSEAQQLFIEWLKNGGPSSGAPPPSHG [triple agonist of SEQ ID NO: 16],2.1
14,[Acetyl(2-(4-imidazolyl))]GQGTFTSDLSKQMDEERAREFIEWLLAQKPSSGAPPPSHG [triple agonist of SEQ ID NO: 17],0.2
15,[Acetyl(2-(4-imidazolyl))]GQGTFTSDLSKQMDSERAREFIEWLKNTGPSSGAPPPSHG [triple agonist of SEQ ID NO: 18],< 0.1
16,Y[Aib]QGTFTSDYSKCLDEKRAKEFVQWLLDHHPSSGQPPPS (bridge 16-20) [triple agonist of SEQ ID NO: 22],20.1
17,Y[Aib]QGTFTSDYSKYLDECRAKEFVQWLLDHHPSSGQPPPS (bridge 16-20) [triple agonist of SEQ ID NO: 21],17.8
18,H[Aib]QGTFTSDCSKYLDERAAQDFVQWLLDGGPSSGAPPPS [triple agonist of SEQ ID NO: 25],82.6
19,[Acetyl(2-(4-imidazolyl))]GQGTFTSDLSIQYEEEAQQDFVEWLKDTGPSSGAPPPSHG [triple agonist of SEQ ID NO: 20],< 0.1

# Molecular target: human GCG receptor (human, UniProt P47871 26-477)
# Assay: cell-based or functional assay
# human GCG receptor, sequence (P47871 26-477): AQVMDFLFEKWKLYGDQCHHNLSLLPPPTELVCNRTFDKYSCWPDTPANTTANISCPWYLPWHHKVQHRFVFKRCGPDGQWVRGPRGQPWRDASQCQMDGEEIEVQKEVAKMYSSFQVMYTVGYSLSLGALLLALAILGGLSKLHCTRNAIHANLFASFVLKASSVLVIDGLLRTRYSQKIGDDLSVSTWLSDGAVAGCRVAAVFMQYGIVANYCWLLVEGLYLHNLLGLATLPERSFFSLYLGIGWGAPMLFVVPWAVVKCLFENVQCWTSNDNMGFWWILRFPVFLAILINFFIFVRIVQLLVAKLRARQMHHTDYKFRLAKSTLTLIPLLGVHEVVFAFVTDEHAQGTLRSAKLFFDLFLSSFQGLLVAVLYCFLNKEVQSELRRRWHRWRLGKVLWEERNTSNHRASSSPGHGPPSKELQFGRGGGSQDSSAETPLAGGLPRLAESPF
row,Binder,"In vitro activity compared to native-type peptide (%), vs Glucagon [%]"
1,H[Aib]QGTFTSDYSKYLDEKACKEFVQWLLAQ (bridge 16-20) [triple agonist of SEQ ID NO: 31],2.2
2,[Acetyl(2-(4-imidazolyl))]GQGTFTSDLSIQYDSEHQRDFIEWLKDTGPSSGAPPPSHG [triple agonist of SEQ ID NO: 19],< 0.1
3,H[Aib]QGTFTSDVSSYLLGQAAKQFIAWLVKGGGPSSGAPPPSC [triple agonist of SEQ ID NO: 3],< 0.1
4,H[Aib]QGTFTSDYSIAMDEIHQKDFVNWLLAQKC (bridge 16-20) [triple agonist of SEQ ID NO: 33],< 0.1
5,Y[Aib]QGTFTSDYSKYLDECRAKEFVQWLKNGGPSSGAPPPS (bridge 16-20) [triple agonist of SEQ ID NO: 24],9.3
6,H[Aib]QGTFTSDYSKYLDEKAAKEFVQWLLNTC (bridge 16-20) [triple agonist of SEQ ID NO: 29],6
7,Y[Aib]QGTFTSDYSKYLDECRAKEFVQWLLAQKGKKNDWKHNIT (bridge 16-20) [triple agonist of SEQ ID NO: 23],9.3
8,H[Aib]QGTFTSDYSKYLDERACQDFVQWLLDQGGPSSGAPPPS [triple agonist of SEQ ID NO: 27],0.8
9,H[Aib]QGTFTSDYSKYLDEKAQKEFVQWLLDTC (bridge 16-20) [triple agonist of SEQ ID NO: 30],0.7
10,H[Aib]QGTFTSDYSKYLDEKACKDFVQWLLDGGPSSGAPPPS (bridge 16-20) [triple agonist of SEQ ID NO: 32],1.7
11,H[Aib]QGTFTSDYSKYLDEKRAQEFVCWLLAQKGKKNDWKHNIT [triple agonist of SEQ ID NO: 28],1.6
12,H[Aib]QGTFTSDCSKYLDSRAAQDFVQWLLDGGPSSGAPPPS [triple agonist of SEQ ID NO: 26],0.2
13,[Acetyl(2-(4-imidazolyl))]GQGTFTSDLSKQMDSEAQQLFIEWLKNGGPSSGAPPPSHG [triple agonist of SEQ ID NO: 16],< 0.1
14,[Acetyl(2-(4-imidazolyl))]GQGTFTSDLSKQMDEERAREFIEWLLAQKPSSGAPPPSHG [triple agonist of SEQ ID NO: 17],< 0.1
15,[Acetyl(2-(4-imidazolyl))]GQGTFTSDLSKQMDSERAREFIEWLKNTGPSSGAPPPSHG [triple agonist of SEQ ID NO: 18],< 0.1
16,Y[Aib]QGTFTSDYSKCLDEKRAKEFVQWLLDHHPSSGQPPPS (bridge 16-20) [triple agonist of SEQ ID NO: 22],140
17,Y[Aib]QGTFTSDYSKYLDECRAKEFVQWLLDHHPSSGQPPPS (bridge 16-20) [triple agonist of SEQ ID NO: 21],267
18,H[Aib]QGTFTSDCSKYLDERAAQDFVQWLLDGGPSSGAPPPS [triple agonist of SEQ ID NO: 25],0.1
19,[Acetyl(2-(4-imidazolyl))]GQGTFTSDLSIQYEEEAQQDFVEWLKDTGPSSGAPPPSHG [triple agonist of SEQ ID NO: 20],< 0.1

# Molecular target: T1, human GIP receptor (human, UniProt P48546 22-466)
# T1 sequence (looked up): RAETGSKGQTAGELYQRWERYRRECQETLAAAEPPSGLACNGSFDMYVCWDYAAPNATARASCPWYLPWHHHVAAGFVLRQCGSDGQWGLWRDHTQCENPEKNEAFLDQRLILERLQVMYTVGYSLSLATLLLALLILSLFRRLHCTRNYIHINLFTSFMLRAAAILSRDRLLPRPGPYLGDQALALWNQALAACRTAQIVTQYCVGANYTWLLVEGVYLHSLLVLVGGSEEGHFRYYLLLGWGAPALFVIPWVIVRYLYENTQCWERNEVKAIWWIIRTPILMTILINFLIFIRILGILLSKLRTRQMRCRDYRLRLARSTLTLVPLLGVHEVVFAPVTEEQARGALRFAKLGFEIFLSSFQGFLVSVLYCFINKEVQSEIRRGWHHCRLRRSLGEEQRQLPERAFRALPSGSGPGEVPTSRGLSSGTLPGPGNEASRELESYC
# Assay: cell-based or functional assay
row,Binder,"In vitro activity compared to native-type peptide (%), vs GIP [%]"
1,H[Aib]QGTFTSDYSKYLDEKACKEFVQWLLAQ (bridge 16-20) [triple agonist of SEQ ID NO: 31],2.4
2,[Acetyl(2-(4-imidazolyl))]GQGTFTSDLSIQYDSEHQRDFIEWLKDTGPSSGAPPPSHG [triple agonist of SEQ ID NO: 19],< 0.1
3,H[Aib]QGTFTSDVSSYLLGQAAKQFIAWLVKGGGPSSGAPPPSC [triple agonist of SEQ ID NO: 3],< 0.1
4,H[Aib]QGTFTSDYSIAMDEIHQKDFVNWLLAQKC (bridge 16-20) [triple agonist of SEQ ID NO: 33],10.4
5,Y[Aib]QGTFTSDYSKYLDECRAKEFVQWLKNGGPSSGAPPPS (bridge 16-20) [triple agonist of SEQ ID NO: 24],< 0.1
6,H[Aib]QGTFTSDYSKYLDEKAAKEFVQWLLNTC (bridge 16-20) [triple agonist of SEQ ID NO: 29],< 0.1
7,Y[Aib]QGTFTSDYSKYLDECRAKEFVQWLLAQKGKKNDWKHNIT (bridge 16-20) [triple agonist of SEQ ID NO: 23],< 0.1
8,H[Aib]QGTFTSDYSKYLDERACQDFVQWLLDQGGPSSGAPPPS [triple agonist of SEQ ID NO: 27],0.9
9,H[Aib]QGTFTSDYSKYLDEKAQKEFVQWLLDTC (bridge 16-20) [triple agonist of SEQ ID NO: 30],0.8
10,H[Aib]QGTFTSDYSKYLDEKACKDFVQWLLDGGPSSGAPPPS (bridge 16-20) [triple agonist of SEQ ID NO: 32],8.8
11,H[Aib]QGTFTSDYSKYLDEKRAQEFVCWLLAQKGKKNDWKHNIT [triple agonist of SEQ ID NO: 28],< 0.1
12,H[Aib]QGTFTSDCSKYLDSRAAQDFVQWLLDGGPSSGAPPPS [triple agonist of SEQ ID NO: 26],< 0.1
13,[Acetyl(2-(4-imidazolyl))]GQGTFTSDLSKQMDSEAQQLFIEWLKNGGPSSGAPPPSHG [triple agonist of SEQ ID NO: 16],< 0.1
14,[Acetyl(2-(4-imidazolyl))]GQGTFTSDLSKQMDEERAREFIEWLLAQKPSSGAPPPSHG [triple agonist of SEQ ID NO: 17],< 0.1
15,[Acetyl(2-(4-imidazolyl))]GQGTFTSDLSKQMDSERAREFIEWLKNTGPSSGAPPPSHG [triple agonist of SEQ ID NO: 18],< 0.1
16,Y[Aib]QGTFTSDYSKCLDEKRAKEFVQWLLDHHPSSGQPPPS (bridge 16-20) [triple agonist of SEQ ID NO: 22],59.7
17,Y[Aib]QGTFTSDYSKYLDECRAKEFVQWLLDHHPSSGQPPPS (bridge 16-20) [triple agonist of SEQ ID NO: 21],22.7
18,H[Aib]QGTFTSDCSKYLDERAAQDFVQWLLDGGPSSGAPPPS [triple agonist of SEQ ID NO: 25],< 0.1
19,[Acetyl(2-(4-imidazolyl))]GQGTFTSDLSIQYEEEAQQDFVEWLKDTGPSSGAPPPSHG [triple agonist of SEQ ID NO: 20],< 0.1

# — patent publication US20230381333A1 (HANMI PHARM, published 2023)
